According to patent US20180282412A1 (ASIA BIOTECH PTE, published 2018):

B1: 67D9 chimeric antibody (c67D9) (antibody, human IgG4 S228P, kappa, V domains shown)
VH: EVILVESGGGLVKPGGSLKVSCAASGFTFSTYGMSWVRQTPEKRLEWVATISGGGRDTYYPDTVKGRFTISRDNAKNTLYLQMSSLRSEDTALYYCARQDYGNYVWFAYWGQGTLVTVSA
VL: not shown
notes: Human kappa light chain (detected with anti-human kappa); also called chimeric Ab
B2: anti-PD-1 humanized antibody hu67D9 (antibody, human IgG4 S228P, kappa, V domains shown)
VH: EVQLVESGGGLVQPGGSLRLSCAASGFTFSTYGMSWVRQAPGKGLEWVATISGGGRDTYYPDTVKGRFTISRDNSKNTLYLQMSSLRAEDTAVYYCARQDYGNYVWFAYWGQGTLVTVSS
VL: DIVLTQSPASLAVSPGQRATISCRASESVDSYGISFMHWFQQKPGQPPQLLIYSTSNRGSGVPARFSGSGSGTDFSLTINPVEADDTANYFCQQSQEVPWTFGQGTKVEIKR
notes: also called humanized 67D9; humanized Ab
B3: 67D9 (mouse anti-PD-1 monoclonal antibody) (antibody, mouse IgG2a, V domains shown)
VH: EVILVESGGGLVKPGGSLKVSCAASGFTFSTYGMSWVRQTPEKRLEWVATISGGGRDTYYPDTVKGRFTISRDNAKNTLYLQMSSLRSEDTALYYCARQDYGNYVWFAYWGQGTLVTVSA
VL: not shown
notes: Purified from hybridoma supernatant by Protein G; also called mouse Ab

Assays:
ICOS [1] = target: T1, ICOS (Homo sapiens (Human), UniProt Q9Y6W8 21-140); assay: ELISA on coated ICOS, HRP anti-human kappa
T1 construct: also called CD28 family member ICOS
T1 sequence: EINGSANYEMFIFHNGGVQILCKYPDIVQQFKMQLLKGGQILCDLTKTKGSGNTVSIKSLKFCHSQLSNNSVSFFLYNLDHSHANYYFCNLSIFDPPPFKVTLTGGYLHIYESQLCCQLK
Procedure: (§1) The specificity of anti-PD-1 antibodies was examined by detecting their binding to CD28 family members ICOS, CTLA-4 and CD28 (R&D System) using standard ELISA. […] Finally, TMB was added as a substrate for HRP, and the absorbance was measured at 450 nm.

CD28 [2] = target: T2, CD28 (Homo sapiens (Human), UniProt P10747 19-152); assay: ELISA on coated CD28, HRP anti-human kappa
T2 construct: also called CD28 family member CD28
Procedure: as §1

CTLA-4 [3] = target: T3, CTLA-4 (Homo sapiens (Human), UniProt P16410 36-161); assay: ELISA on coated CTLA-4, HRP anti-human kappa
T3 construct: also called CD28 family member CTLA-4
T3 sequence: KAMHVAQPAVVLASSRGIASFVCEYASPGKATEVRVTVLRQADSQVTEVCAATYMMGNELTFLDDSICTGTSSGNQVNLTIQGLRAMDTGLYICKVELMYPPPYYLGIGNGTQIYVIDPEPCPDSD
Procedure: as §1

[4] = target: T4, PD-1-Fc fusion protein (extracellular region of human PD-1 fused to human Fc) (human); assay: ELISA on coated PD-1-Fc, HRP anti-human kappa
T4 construct: unlabelled when coated on plates or immobilized; also called human PD-1-Fc; PD-1-Fc-biotin

[5] = target: T4, PD-1-Fc fusion protein (extracellular …); assay: ELISA on coated human PD-1-Fc, HRP anti-human kappa
Procedure: (§2) Finally, TMB was added as a substrate for HRP, and the absorbance was measured at 450 nm.

mouse PD-1-Fc [6] = target: T5, mouse PD-1-Fc (mouse, UniProt Q02242 25-169); assay: ELISA on coated mouse PD-1-Fc, HRP anti-human kappa
T5 construct: extracellular domain; not shown: Fc part
T5 sequence (looked up): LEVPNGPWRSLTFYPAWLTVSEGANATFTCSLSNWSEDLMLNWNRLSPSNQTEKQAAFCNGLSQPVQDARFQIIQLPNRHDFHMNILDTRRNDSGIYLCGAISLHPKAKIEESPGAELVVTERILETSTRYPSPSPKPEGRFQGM
Procedure: as §2

[7] = target: T6, Cynomolgus monkey PD-1-Fc (Cynomolgus monkey, UniProt B0LAJ3 25-170); assay: ELISA on coated Cynomolgus monkey PD-1-Fc, HRP anti-human kappa
T6 construct: not shown: The Fc part and any linker
Procedure: as §2

[8] = target: T4, PD-1-Fc fusion protein (extracellular …); assay: solution-equilibrium ELISA (Holash method): antibody preincubated with PD-1-Fc, free antibody captured on coated PD-1-Fc
Procedure: as §2

[9] = target: T7, full-length human PD-1 expressed on transfected CHO-K1 cells (CHO/PD-1) (human, UniProt Q15116 25-288); assay: flow cytometry blocking assay, 10 ug/ml antibody with biotin-PD-L1-Fc (blocked ligand) on CHO/PD-1 cells, Avidin-PE
T7 construct: also called PD-1-transfected CHO cells; cell surface PD-1
Procedure: Then the mixture was added to the CHO/PD-1 cells. After 1 hour, the cells were washed and binding of was detected with Avidin-PE. Flow cytometric analysis was performed using a FACScan flow cytometry (Becton Dickinson).

[10] = target: T4, PD-1-Fc fusion protein (extracellular …); assay: SPR (Biacore), PD-1-Fc immobilized, antibody as analyte
Procedure: (§3) Affinity constants were calculated from the ratio of the rate constants.

[11] = target: T4, PD-1-Fc fusion protein (extracellular …); assay: ELISA on coated PD-1-Fc, HRP anti-human kappa; remark: listed apart in the source
[12] = target: T7, full-length human PD-1 expressed on …; assay: flow cytometry on CHO/PD-1 cells, FITC anti-human antibody
Procedure: After 1 hour incubation, the cells were washed and an FITC labelled anti human antibody was incubated for 1 hour. Then the cells were washed and the flow cytometric analysis was performed using a FACScan flow cytometry.

[13] = target: T4, PD-1-Fc fusion protein (extracellular …); assay: SPR (Biacore), ligand PD1-Fc-biotin, sample hu67D9, 25 C, fit 1:1 Binding
Procedure: as §3

[14] = target: T4, PD-1-Fc fusion protein (extracellular …); assay: competition ELISA on coated PD-1-Fc, competitor biotin labelled Nivolumab, HRP-avidin
[15] = target: T4, PD-1-Fc fusion protein (extracellular …); assay: competition ELISA on coated PD-1-Fc, blocked ligand biotin labelled PDL1-Fc, HRP-avidin
[16] = target: T7, full-length human PD-1 expressed on …; assay: flow cytometry competition on CHO/PD-1 cells, competitor FITC labelled Nivolumab at a sub-saturating concentration
ICOS [17] = target: T1, ICOS; assay: ELISA on coated ICOS, HRP anti-mouse kappa
Procedure: as §1

CD28 [18] = target: T2, CD28; assay: ELISA on coated CD28, HRP anti-mouse kappa
Procedure: as §1

CTLA-4 [19] = target: T3, CTLA-4; assay: ELISA on coated CTLA-4, HRP anti-mouse kappa
Procedure: as §1

[20] = target: T4, PD-1-Fc fusion protein (extracellular …); assay: ELISA on coated PD-1-Fc, HRP anti-mouse kappa
[21] = target: T4, PD-1-Fc fusion protein (extracellular …); assay: ELISA on coated human PD-1-Fc, HRP anti-mouse kappa
Procedure: as §2

mouse PD-1-Fc [22] = target: T5, mouse PD-1-Fc; assay: ELISA on coated mouse PD-1-Fc, HRP anti-mouse kappa
Procedure: as §2

[23] = target: T6, Cynomolgus monkey PD-1-Fc; assay: ELISA on coated Cynomolgus monkey PD-1-Fc, HRP anti-mouse kappa
Procedure: as §2

| Binder | binding result (ICOS [1]) | binding result (CD28 [2]) | binding result (CTLA-4 [3]) | EC50 (read off the curve) [4] [ng/mL] | EC50 (read off the curve) [5] [ng/mL] | binding result (mouse PD-1-Fc [6]) | EC50 (read off the curve) [7] [ng/mL] | Kd [8] [pM] | binding result [9] | also measured |
| --- | --- | --- | --- | --- | --- | --- | --- | --- | --- | --- |
| B1 | no binding (tested: 1000 ng/ml) | no binding (tested: 1000 ng/ml) | no binding (tested: 1000 ng/ml) | ~10 | ~10 | no binding (tested: 1000 ng/ml) | ~10 | 16.9 | binds | – |
| B2 | no binding (tested: 1000 ng/ml) | no binding (tested: 1000 ng/ml) | no binding (tested: 1000 ng/ml) | ~10 | ~10 | no binding (tested: 1000 ng/ml) | ~10 | 15.4 | – | Kd [10]: 3.21 pM; EC50 (read off the curve) [11]: ~10 ng/mL; EC50 (read off the curve) [12]: ~20 ng/mL; koff [13]: 2.77e-05 s⁻¹; kon [13]: 8.63e+06 M⁻¹ s⁻¹; IC50 (read off the curve) [14]: ~5000 ng/mL; IC50 (read off the curve) [15]: ~2 ng/mL; IC50 (read off the curve) [16]: ~5000 ng/mL |
| B3 | – | – | – | – | – | – | – | 12.4 | binds | binding result (ICOS [17]): no binding (tested: 1000 ng/ml); binding result (CD28 [18]): no binding (tested: 1000 ng/ml); binding result (CTLA-4 [19]): no binding (tested: 1000 ng/ml); EC50 (read off the curve) [20]: ~10 ng/mL; EC50 (read off the curve) [21]: ~10 ng/mL; binding result (mouse PD-1-Fc [22]): no binding (tested: 1000 ng/ml); EC50 (read off the curve) [23]: ~10 ng/mL |
